One protein from paper doi:10.1101/638320, “Analyzing the weak dimerization of a cellulose binding module by sedimentation velocity experiments” (bioRxiv, 2019) can be followed below.

Data set [1] concerns the molecule itself. Briefly: AUC; loading concentration 0.50 mg/mL (27.07 uM).
Data set [2] concerns the molecule itself. The experiment in a line: AUC; loading concentration 0.70 mg/mL (37.90 uM).
Data set [3] concerns the molecule itself. The experiment in a line: AUC; sedimentation velocity, absorbance at 280 nm, 50 000 rpm, 20 °C, PBS (137 mM NaCl, 2.7 mM KCl, 10 mM Na2HPO4, 1.8 mM KH2PO4, pH 7.35), 0.05 to 0.7 g/L; UltraScan III (2DSA, GA, GAMC, van Holde-Weischet; KD by discrete model genetic algorithm); dimer to monomers.

B1: CBM_(CipA), cellulose binding module of the cellulosome anchoring protein CipA (domain or fragment, Clostridium thermocellum)
chain: MGNLKVEFYNSNPSDTTNSINPQFKVTNTGSSAIDLSKLTLRYYYTVDGQKDQTFWCDHAAIIGSNGSYNGITSNVKGTFVKMSSSTNNADTYLEISFTGGTLEPGAHVQIQGRFAKNDWSNYTQSNDYSFKSASQFVEWDQVTAYLNGVLVWGKEPLE
notes: abstract: Clostridium thermocellum, introduction: Cellulomonas fimi; differs from PDB 1NBC by the polyHis tag and two amino acids at the beginning and the end; Calculated monomer mass 18469 Da; Gene codon optimised for E. coli, in a modified pET28a(+); also called CMB_(CipA); source: E. coli BL21 (DE3), purified (heating to 70 °C, IMAC on HisTrap, desalting); not shown: His6, C-terminal, kept
For B1, the equilibrium dissociation constant (Kd) in data set [1] is 93.9 µM; in data set [2] it was 80.5 µM; in data set [3], about 87 µM. In addition, the “stoichiometry N” value in data set [3] worked out at 2.
